Reference: a protein production outcome set (Wang et al. 2014)

Test: label from the status in PepcDB records

Sequence | protein production
MQQALAFVARHGRLGLMVGLGAGLALPGLAAVMRPWIPQLVALLLFLTAFRIGPVDAAGSLADLTRTARRVLVLQLALPILFLLGLRLLGLPVTPLALVLALVLAAPSVTGSANFTILLAQDPAPALRLLILGTALLPLTAIPVFWLLPAFGDPAEVFGAALRLLGVILLAAGCGFALRHWGARQLSDLNRRAMDGLTVIALAVIVIALMSAVRPAMTERPAELAFWLLAAFAINLGGQTLCYLTLRATGGADPVPTSIVAGNRNFALFFVALPSEVTEPLLIFLGCYQFPMYLTPTLMRRLYDPV | failed
MQRGSRQLYLGDPATDKLQVPEMPMQVLTAFVPGMEVAISAISSYLSTKKMSEGGAGPLLQKRRPNTRKLWSEGRVQPRPFCVLSGLAPPRSRPGPWGPFKAASWPAGTCFAPSDAAEVAASPLRRRGDCWEGRRDGGSETSSRSRIRVKRDRSKSQSRTKAEGAGRRGPVGPGDPVRPDGEKRLQARRPPAPPLASTDRKTMATMVLPREEKLSQDEIVLGTKAVIQGLETLRGEHRALLAPLASHEAGEAEPGSQERCLLLRRSLEAIELGLGEAQVILALSSHLGAVESEKQKLRAQVRRLVQENQWLREELAGTQQKLQRSEQAVAQLEEEKQHLLFMSQIRKLDEDASPNEEKGDVPKDSLDDLFPNEDEQSPAPSPGGGDVAAQHGGYEIPARLRTLHNLVIQYASQGRYEVAVPLCKQALEDLEKTSGHDHPDVATMLNILALVYRDQNKYKDAAHLLNDALAIREKTLGKDHPAVAATLNNLAVLYGKRGKYKEAEPLCKRALEIREKVLGKFHPDVAKQLSNLALLCQNQGKAEEVEYYYRRALEIYATRLGPDDPNVAKTKNNLASCYLKQGKYQDAETLYKEILTRAHEKEFGSVNGENKPIWMHAEEREESKDKRRDSAPYGEYGSWYKACKVDSPTVNTTLRSLGALYRRQGKLEAAHTLEDCASRSRKQGLDPASQTKVVELLKDGSGGRGDRRGSRDVAGGAGPRSESDLEESGPAAEWSGDGSGSLRRSGSFGKLRDALRRSSEMLVRKLQGGGPQEPPNSRMKRASSLNFLNKSVEEPVQPGGTGLSDSRTLSSSSMDLSRRSSLVG | failed
MQRIMVIGGPGSGKSTLGRKLGARLGLPVVHMDPIYWLGDWVERDKAEAMRMAKEVADGSQWVFEGNHFASMAYRAERADLIVFLDMPRVLRMWRILWRSLRYYGRTRPDMGPNCPERFNRAFLKFCWTYDREGRLRALGFVDDWRDRRRVRILTSRRQVAAFLVEIDRQLEHHHHHH | failed
MQRLKTVFILFIAFLFFSCSGKTNEQAFFKELSKIDLQIAEGYQAKALKSLKRLQKKAVNSTNYVSIVKRQLKLNSIPDALISLQTGIKKIPDSPELSALLTSILIDSGKPAEALPYCEKLKDTPYASLGAEASILSDIALNSFNSDFSLLKAAYDKTENQVFLKNAAIVLAAKGRLREASNLRYNIPNDVAPEHPFFWSCIVYDLGVFDSIFGDLYFSLVYADKDGGEGKTAENARLHLMLAADAAYGQGDTERARAFWQAAADRSPEASPIVFYDLALTAPDEKERVDLLIECIDLYPDFYPVIARYVREDIALRELNSQDELSAYLESKGFYSIKMEETYFTSPKMTYKPEDLLARAMKNPNFDQRFILEEFRYNQITDKTYASKARGKADMWKILEKYGKESIIREYAKWYFAQSGDFNACLSVSEIGKRYEDSFYAGINSALSGDFENAVSSFAASAQVSAYAYASTVNSAYMYYMSGKTSEAVDTYSLAASMTQDKKRQSMLHYEIASIFYERKAYDRAISVLGYALELNPKNYQAASLLKKLKEFN | failed
MQRLQHYYQCFLAQLKNFDGIPALLLRLYLAPVFIMAGFSKTQMLNEEVTGFSAIMADPNIIAWFGNSDWGLGLPFPALLANLVILVEFFGGWFLLFGALTRLISIPLMFTMIVAATSVHADNGWFAITPTNSDISPAKVAVWLGIDSAQASLDNSEQTATRLEKMRELIEENGNTDWLYENGNIVVLNNGIEFSTTYFIMLLSLFFIGAGRYTSVDHFVAKRFLIEEKRFS | failed
MQRLSTEFSMNHPVRRSPIASFFVGLWDVMNFTRRLIFNLVFFGFLFMLLLVFVVALARGDGTKPLAERTTLVINPEGTLVEQFSADPVSRSLAKAVGDKSAQEVQLRDLVRVIEAAGKDRKIERVLLNLDKFQPSGFASQREVAAALQKLRASGKQIVAFSESMSQGQYLLAAQANEVYLDPMGSVLLEGLGRYRQYFREGLQDKLGVDVHLFRVGEYKSAAEPYILDAASADAKEADLFWMNDVWQRYLADVVTARKLSPAQLTAGIDTLPEGVAAAGGDLAKFALQQKLVDGLKTREEVDALLVKRGVADSDAESGFRNIGFNDYLSQLQAQDSPMDSRPQVAVVVATGEISGGEQPAGRIGGESTAALLRQARDDEKVKAVVLRVDSPGGEVFASEQIRREVVALKQAGKPVVVSMGDLAASGGYWISMNADRIYADPSTISGSIGIFGMVPNLTRALDKIGVHTDGVGTTRFAGAFDITRPLDPAAGQVIQAVINKGYADFTGKVAQARHQSVDAIDKVARGRVWSGAQAKERGLVDAFGGMSEAVADAADRAKLSRGKFRVRYVEKPATPFSQFMNGFAGSRMGAWMLSDSGMARALVARALPEVDTQLRFVESAVHDSKAGGTPVKSLAYCFCGF | failed
MQRQNKQQEDSFMIPETSYDIVVVGAGPAGSTAALYAAKKGASVLLLDKKREIGSPIQCAGFLPDASEVKALLPEADLPGALKNYPDSCVLQPIRTQRIIPPNCNAKEFAVKGAVLDRRRYDQYLAEQAAEAGAELMVKTRVTKIQGTTVETSGIFGKHTIRAKAIIGADGPNSLVAKSRGLIMKPEARETSVAIEYQVRNVDIDPDALEMYFGKDYVPGGYAWVFPEGKDRANVGIGIRSCMAEKGVSAKEYLHRFIKKHPVAGPKLKNAVIMNVIAGIIPVNGAPANTATADSLVVGDAAGHIIATNGGGIPPAMIAGKIAGETAAEFAAGKCDLEEYDRRWRAQFGQALETSVQARQIMDGIMKSDALMNAAFRFISPEQMKVMQCGKLPGPVKLGLQALSRGKK | failed
MQSFFDREFTFDRTARLFFIILLVGGIMAIVIGLRGILIPFCLSWILAYVLMPLVRFVQYRLHFRFRFLSVITVLVFISALIFFAILSLVPAVEEEVSKTITLLQQYRIDENLLQMLPAPIRKFLSESGSMNDLFKGISYEKLMENSKEIFGQLNKLVSGTISLFSYTTIFFIGVLYFIFILFDFEKLGKGFVNLFPVGHRIRVRSILKEVDKNMNSYFRGQALIALCVGILLSIGYKIIDFPLGVTLGLFIGMLNLIPYLQIVGLIPIVFLSVLKAAQTGQNFFVVLALGIGVMMIVQVIQDTILTPNIMGKRMGMSPAMILLSISIWGSLLGFFGLFIALPLTMSLYSVYKRYVIQDPKFIREENEETMPKKGLFRKHSRKEEK | failed
MQSILKPITNLFTMIFQAIHGFVASLDIFGVGAGYVITIFLLTLLVRLILLPLNIKQTRSQQKMQEIQPEIAKLQKKYKNNPEKAQQEMMKLYKENNVNPMSGCLPLLIQMPILFALYYVFTGLTELQGVSFLWLGDLWAPDRTFILPILSAATTYLSSLLMTKFTQSQAGGAPGGMNMNTMNIVMAGMMGVMSIQFPSMLVLYWVIGNLIQMVQTYFIVVLPSRKRAKEKEQYKDIK | failed
MQSIRSILVVIDPTPGESLALKRAKLIAGVTQAHLHLLVCDRKHEHSALLSVLKSSLTGEGYSVTTEQAWNESLHETIIDVQQAEGCGLVIKQHLPDAPLKKALLTPADWKLLRYCPTPVLLVKTATPWVGGVVMAAIDVGNMDGEHRALHASIVDHGFDIASLAKAQLHVISAHPSPMLSAADPVFQLKETIEARYREQCKAFQAEFDIDDAHLHIEEGPADVLIPHLAHKLGAVLTIIGTVARTGISGALIGNTAEVVLDSLDSDVLVLKPADIMDHLEELAAKA | not failed
MQSRFRSDRRLTVRMGVTLFLLGLLYVGFVAALIALLKSWVLVVVIVALVFGAQYWFSDRIALFAMRGRVVEREEYPELHGVVDRLAAMADMPKPVVAVSEMEMPNAFATGRNPDNAVVCVTTGLLRRLEPAELEGVLAHELSHVAHKDVAVITVASFLGVIAGLIVRFAFYSQLFGGRRDQNTLAVLAVVMGVSAAVYALSFLLIRALSRYRELAADRAAALLTGRPSALAAALTKVTGDIARIPTKDLRTAQAFNAFYFTPAFGSDPGLGRFFATHPSLEQRLDQLGRISTELGEAPAPGKA | failed
